Test results from the supplement of paper PMC10567573.

B1: KRT13 (parent)
chain: KTIEELRDKILTATIENNRVILEI
B2: KLHL14 (parent)
chain: YVIGGRNETGYLSSVECYNLETNE

Variants of: B1
Assay: protein stability index of a GFP-peptide fusion (GPS, HEK-293T) (PSI 1-6); higher = more stable
Conditions: c terminus: a fixed tail appended
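Further: lentivirally expressed fusions sorted by FACS into six bins by GFP to DsRed ratio, PSI derived from sequencing read proportions per bin multiplied by bin number.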

Protein stability index: each site, then its substitutions
T2: W 3.4, C 2.92, L 2.35, N 2.12, E 1.63, H 1.86, M 2.73, A 2.31, K 2.6, Q 3.17, D 2.88
E4: I 2.6, F 3.99, H 3.82, A 1.85, L 4.03, D 3.39
I3: S 2.41, D 1.67, E 2.13, N 2.43, A 1.24, P 1.39, K 2.09, R 1.36, C 3.18, T 2.91, Q 2.43, F 3.37, G 3.54
K1: H 2.09, S 3.17, W 3.79, I 2.74, A 3.63, N 2.48, E 2.38, Y 2.36, R 1.6, C 1.99, P 1.24, D 2.31, F 3.36, M 1.88, T 2.34

Variants of: B2
Assay: as above
Conditions: c terminus: a fixed tail appended

Protein stability index of substitutions, site by site:
C17: S 2.11, Q 2.43, I 2.5, D 2.82, W 2.17, K 2.28, L 2.56, G 2.8, Y 1.78, F 1.66, V 1.48, T 2.56, A 2.06, E 2.22, R 2.39, M 1.78, H 2.08, N 2.44, P 2.23
N19: I 2.07, K 2.13, S 1.83, Q 2, A 2.15, Y 1.76, L 2.08, D 2.41, P 2.1, W 2.77, T 2.17, G 1.7, F 3.39, R 1.49, E 2.22, H 2.04, M 1.8, V 1.66, C 1.57
T22: E 2.84, A 2, P 1.76, Q 1.94, N 1.63, K 2.2, I 1.84, L 2.1, S 1.4, M 1.49, H 2.54, F 1.54, R 2.62, G 1.86, V 2.6, Y 2.06, D 2.07, C 1.79, W 1.53
E24: H 1.8, Q 1.49, W 1.67, S 2.07, L 2.27, A 1.64, R 2.17, F 1.95, V 1.96, D 2.14, I 2.19, T 1.63, K 1.75, M 1.71, C 1.96, P 1.72, Y 2.08, G 1.69, N 1.99
L12: G 2.99, H 1.92, N 2.78, K 2.16, C 2.32, E 3.23, P 2.64, I 2.25, Y 1.8, V 2.21, S 2.59, Q 2.42, A 2.62, W 2.47, T 2.57, F 1.8, R 3.28, D 3.42, M 2.33
E16: A 1.27, D 2.41, W 2.93, T 1.96, V 3.5, F 3.4, M 1.45, R 2.16, K 1.28, H 1.62, L 2.09, Q 1.96, S 2.18, N 2.33, G 1.54, C 2.58, I 1.83, P 2.45, Y 1.84
S14: C 2.4, F 1.47, I 2.56, T 1.99, V 2.08, N 2.12, R 1.58, L 1.75, Y 2.01, G 2.31, K 1.35, Q 2.5, H 1.8, D 2.38, M 2.3, P 1.61, E 2.91, W 2.88, A 1.7
N23: I 1.56, Q 3.14, K 1.96, A 2.06, Y 1.75, E 2.67, L 1.66, T 2.15, H 1.86, C 2.45, P 1.75, M 1.89, D 2.75, F 1.88, V 2.17, S 1.86, G 1.74, W 1.74, R 1.92
V15: R 2.01, E 2.69, Q 2.49, F 1.52, L 1.9, I 1.83, S 2.5, G 2.05, P 2.46, C 1.66, K 2.12, H 2.24, M 1.84, N 2.46, W 2.21, A 1.76, D 2.95, T 1.74, Y 1.5
S13: R 2.23, T 1.79, P 2.6, Q 1.64, G 1.81, K 1.68, V 1.89, Y 1.79, N 1.78, L 2.25, A 1.65, I 1.84, D 2.76, C 2.24, E 2.61, H 1.58, M 1.91, F 2.13
G10: H 1.45, F 2.81, K 2.13, A 1.88, E 3.13, D 3.07, C 2.58, P 1.52, L 2.62, T 1.6, V 1.98, Y 1.6, W 2.21, Q 2.29, N 1.65, M 1.68, S 1.93, I 1.25, R 2.55
E21: D 1.8, H 1.63, S 2.29, T 1.68, A 2.66, Y 2.17, R 1.91, W 3.54, P 1.93, K 2.26, G 2.19, Q 2.39, L 1.67, F 2.62, M 1.74, V 1.54, C 2.61, N 1.55, I 2.05
Y11: I 2.1, V 2.52, M 1.96, T 2.75, H 2.45, R 2.13, N 2.83, L 2.2, A 2.71, K 2.86, F 1.83, G 2.85, Q 3.1, C 2.45, D 3.65, S 2.42, P 3.71, E 3.9
T9: V 2.07, R 2.76, S 1.93, Q 2, W 1.78, Y 1.58
Y18: H 2.32, S 2.14, P 2.45, L 2.11, T 2.72, G 2.57, V 2.05, C 1.71, R 2.6, E 2.48, A 2.76, F 2.1, Q 2.34, M 2.4, N 2.61, K 1.96, I 2.5, W 2.21, D 2.77
L20: Q 2.48, R 2.39, M 1.96, F 1.98, E 3.04, V 1.78, S 2.18, W 1.55, D 2.79, I 2.21, P 1.83, N 2.79, T 2.36, H 2.34, K 2.09, G 1.82, A 2.12, C 2.09, Y 2.02
